Substrate: Nc1ncnc2c1ncn2[C@@H]1O[C@H](COP(=O)(O)OP(=O)(O)OP(=O)(O)O)[C@@H](O)[C@H]1O
Assay: ATP Km by microfluidic mobility shift kinase assay
Assay type: biochemical, Homo sapiens
Conditions: Mg2+ ([…] MgCl2 in the assay buffer)

B1: hTSSK2 (testis-specific serine/threonine kinase 2) (Homo sapiens) (protein)
chain: MDDATVLRKKGYIVGINLGKGSYAKVKSAYSERLKFNVAVKIIDRKKTPTDFVERFLPREMDILATVNHGSIIKTYEIFETSDGRIYIIMELGVQGDLLEFIKCQGALHEDVARKMFRQLSSAVKYCHDLDIVHRDLKCENLLLDKDFNIKLSDFGFSKRCLRDSNGRIILSKTFCGSAAYAAPEVLQSIPYQPKVYDIWSLGVILYIMVCGSMPYDDSDIRKMLRIQKEHRVDFPRSKNLTCECKDLIYRMLQPDVSQRLHIDEILSHSWLQPPKPKATSSASFKREGEGKYRAECKLDTKTGLRPDHRPDHKLGAKTQHRLLVVPENENRMEDRLAETSRAKDHHISGAEVGKAST
- Km: 2.17 ± 0.04 µM

Source: article PMC4866589
